Data on 7 molecules can be found in US20240254229A1 (Molecular Partners, published 2024).

Changes are numbered by the printed parent chain.

In experiment [1] the target is T1, biotinylated extracellular domain of human CD33 (SEQ ID NO: 87), Fc and Avi tagged (human, UniProt P20138 18-259, biotinylated with BirA-GST (Avi tag)).
T1 construct: also called hCD33; human target hCD33
The experiment is described as follows: crude extract HTRF, 6 nM biotinylated hCD33. The text has this: Similarly, individual selected ankyrin repeat proteins specifically binding to hCD33 in solution were identified by a Homogeneous Time Resolved Fluorescence (HTRF) assay using crude extracts of ankyrin repeat protein-expressing Escherichia coli cells using standard protocols. Ankyrin repeat protein clones selected by ribosome display were cloned into derivatives of the pQE30 (Qiagen) expression vector (pMPDV045), which contains a C-terminal CD3 binding designed ankyrin repeat protein followed by a Flag tag, transformed into E. coli XL1-Blue (Stratagene), plated on LB-agar (containing 1% glucose and 50 μg/ml ampicillin) and then incubated overnight at 37° C. […]
The extract of each lysed clone was applied as a 1:1000 dilution (final concentration) in PBSTB (PBS supplemented with 0.1% Tween 20® and 0.2% (w/v) BSA, pH 7.4) together with 6 nM (final concentration) biotinylated hCD33 (full-length or splice variant of ECD CD33), 1:400 (final concentration) of anti-strep-Tb HTRF antibody-FRET donor conjugate (Cisbio) and 1:400 (final concentration) of anti-6His-D2 antibody FRET acceptor conjugate (Cisbio) to a well of 384 well plate and incubated for 60 minutes at RT. The HTRF was read-out on a Tecan M1000 using a 340 nm excitation wavelength and a 665±10 nm emission filter. […]

Experiment [2] has as its target T2, human CD3 on primary human pan-T cells (human, UniProt P07766 23-207; P09693 23-182; P04234 22-171; P20963 22-164).
T2 construct: whole, on cells; Native complex on T cells isolated from PBMC; also called CD3 on Pan-T cells
The experiment is described as follows: Mirrorball cytometry on primary human pan-T cells, 600 µM HSA. On the procedure: The determination of CD3 binding was performed with primary human T cells using Mirrorball laser scanning imaging cytometry. Therefore, primary T cells were isolated from human peripheral blood mononuclear cells (PBMCs) using a pan-T cell purification kit (Miltenyi Biotec). A titration of DARPin® protein #7, DARPin® protein #8 and DARPin® protein #9 and DARPin® protein #10, formatted into a trispecific format (including CD33 and CD123 binding ankyrin repeat domains), DARPin® protein #11, DARPin® protein #12, DARPin® protein #13 and DARPin® protein #14 UN tetraspecific format (including an additional ankyrin repeat domain binding specifically to human serum albumin) were incubated with 50′000 pan-T cells per well in presence of 600 μM human serum albumin (to mimic physiological serum concentration) for 30 minutes at 4° C. Two benchmark T-cell engagers, AMG330 and flotetuzumab were applied as controls, targeting CD33 or CD123. After washing, CD3 binding was detected by 1:100-diluted anti-penta-His Alexa Fluor 488 antibody (Qiagen). After 30 min incubation at 4° C., cells were washed and resuspended in Cytofix fixation buffer (BD Biosciences) and counterstained by 5 μM DRAQ5 (Abcam) for 15 min at RT. Median of mean fluorescence intensities of Alexa Fluor 488 binding on far-red counterstained cells were measured by Mirrorball using Cellista software (SPT Labtech) and data was plotted using GraphPad Prism 8.

Experiment [3] deals with T3, human scCD3εγ (scCD3εγ_Avi-Bio) (human, biotin on the C-terminal Avi-tag (in vitro, BirA) where the biotinylated form was used).
T3 construct: Used for all SPR and HTRF results on human CD3; also called recombinant human CD3; human CD3
T3 chain: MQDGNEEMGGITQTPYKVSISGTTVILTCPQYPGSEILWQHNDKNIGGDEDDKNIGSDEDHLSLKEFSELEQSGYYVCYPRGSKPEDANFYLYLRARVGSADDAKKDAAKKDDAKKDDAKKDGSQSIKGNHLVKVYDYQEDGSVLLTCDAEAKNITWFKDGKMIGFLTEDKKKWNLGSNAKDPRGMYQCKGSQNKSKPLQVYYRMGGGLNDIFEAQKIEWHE
The experiment is described as follows: SPR (ProteOn), biotinylated scCD3εγ on NLC chip, DARPin as analyte. The protocol: The binding affinities of four purified ankyrin repeat proteins on recombinant human CD3 target were analyzed using a ProteOn instrument (BioRad) and the measurement was performed according standard procedures known to the person skilled in the art. For that, DARPin® protein #7, DARPin® protein #8 and DARPin® protein #9 and DARPin® protein #10 of the invention were subcloned and expressed as described above into derivatives of the pQE30 (Qiagen) expression vector, containing an N-terminal His-tag, CD33 and CD123 binding ankyrin repeat domains, followed by one of the four CD3 specific ankyrin repeat protein constructs.
(§1) Briefly, biotinylated human scCD3εγ was diluted in PBST (PBS, pH 7.4 containing 0.005% Tween 200) and coated on a NLC chip (BioRad) to a level of around 700-1400 resonance units (RU). The interaction of ankyrin repeat protein and human CD3 was then measured by injecting 300 μl running buffer (PBS, pH 7.4 containing 0.005% Tween 200) containing serial dilutions of ankyrin repeat proteins covering a concentration range between 64 nM and 4 nM for multi-trace SPR measurements, followed by a running buffer flow for at least 10 minutes at a constant flow rate of 60 μl/min (off-rate measurement). The regeneration was performed using 30 μl of 10 mM Glycine pH 2. The signals (i.e. resonance unit (RU) values) of the interspots and a reference injection (i.e. injection of running buffer only) were subtracted from the RU traces obtained after injection of ankyrin repeat protein (double-referencing). While binding was too weak for DARPin® protein #7, binding parameters (KD, on-rate, off-rate) against CD3 were determined for affinity matured constructs. On-rates (kₒₙ) and dissociation constants (KD) are given only as approximation because binding equilibrium was not appropriately reached even at highest samples concentration, leading to non-optimal fits for on-rates.
Dissociation constants (KD) were calculated from the estimated on- and off-rates using standard procedures known to the person skilled in the art.

Experiment [4] addresses T4, biotinylated extracellular domains of human CD33 (Speed BioSystems, cat #YCP2045) (human, UniProt P20138 18-259, biotinylated).
T4 construct: extracellular domain
The experiment is described as follows: SPR (ProteOn), biotinylated target on chip. The protocol:
as §1
(§2) The binding affinities of two purified ankyrin repeat proteins on recombinant human CD33 and CD123 target respectively were analyzed using a ProteOn instrument (BioRad) and the measurement was performed according standard procedures known to the person skilled in the art. For that, DARPin® protein #25 (with binding specificity for CD33 and CD3), DARPin® protein #26 (with binding specificity for CD123 and […]) of the invention were subcloned and expressed as described above into derivatives of the pQE30 (Qiagen) expression vector, containing an N-terminal His-tag, CD33 or CD123 binding ankyrin repeat domains respectively, followed by one of the four CD3 specific ankyrin repeat protein constructs. The following steps were performed as described in A above. Briefly, biotinylated extracellular domains of human CD33 (provided by Speed BioSystems, Lot no cat #YCP2045) as target protein was used for the assessment of DARPin® protein #25 and biotinylated extracellular domains of human (uniprot ID 26951) for the assessment of DARPin® protein #26 accordingly.

Experiment [5] has as its target T5, biotinylated extracellular domains of human CD123 (uniprot ID 26951), Fc format (human, UniProt P26951 19-305, biotinylated).
T5 construct: extracellular domain
T5 sequence (looked up): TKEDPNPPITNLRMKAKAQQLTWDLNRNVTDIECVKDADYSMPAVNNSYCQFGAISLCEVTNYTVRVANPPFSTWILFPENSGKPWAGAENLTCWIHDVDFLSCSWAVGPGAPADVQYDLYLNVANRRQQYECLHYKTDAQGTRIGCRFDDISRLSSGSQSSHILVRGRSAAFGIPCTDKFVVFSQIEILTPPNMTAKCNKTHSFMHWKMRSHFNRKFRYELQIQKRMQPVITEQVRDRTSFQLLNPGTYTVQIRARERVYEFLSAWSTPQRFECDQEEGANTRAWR
The experiment is described as follows: SPR (ProteOn), biotinylated target on chip. On the procedure: as §1, §2

T4 sequence (P20138 18-259): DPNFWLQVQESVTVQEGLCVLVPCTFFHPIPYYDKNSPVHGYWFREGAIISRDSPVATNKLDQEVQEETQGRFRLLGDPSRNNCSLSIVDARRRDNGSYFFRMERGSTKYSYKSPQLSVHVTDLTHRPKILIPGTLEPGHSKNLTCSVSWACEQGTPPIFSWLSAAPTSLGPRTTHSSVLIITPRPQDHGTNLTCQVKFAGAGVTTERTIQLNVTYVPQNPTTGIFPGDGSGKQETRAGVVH
T2 sequence (P07766 23-207, chain 1 of 4): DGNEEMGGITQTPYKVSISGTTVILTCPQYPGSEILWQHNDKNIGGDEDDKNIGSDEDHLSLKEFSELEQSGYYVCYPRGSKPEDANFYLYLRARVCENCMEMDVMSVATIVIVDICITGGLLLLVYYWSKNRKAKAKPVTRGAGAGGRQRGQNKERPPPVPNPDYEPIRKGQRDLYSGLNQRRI
T2 sequence (P09693 23-182, chain 2 of 4): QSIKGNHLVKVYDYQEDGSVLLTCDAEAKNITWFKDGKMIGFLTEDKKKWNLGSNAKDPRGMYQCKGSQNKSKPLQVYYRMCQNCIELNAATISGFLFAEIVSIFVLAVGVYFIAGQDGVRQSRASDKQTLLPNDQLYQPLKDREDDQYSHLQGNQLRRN
T2 sequence (P04234 22-171, chain 3 of 4): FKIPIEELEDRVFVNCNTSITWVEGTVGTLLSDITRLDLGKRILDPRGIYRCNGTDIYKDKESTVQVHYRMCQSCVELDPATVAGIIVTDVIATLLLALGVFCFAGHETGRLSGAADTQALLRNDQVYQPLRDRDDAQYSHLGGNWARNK
T2 sequence (P20963 22-164, chain 4 of 4): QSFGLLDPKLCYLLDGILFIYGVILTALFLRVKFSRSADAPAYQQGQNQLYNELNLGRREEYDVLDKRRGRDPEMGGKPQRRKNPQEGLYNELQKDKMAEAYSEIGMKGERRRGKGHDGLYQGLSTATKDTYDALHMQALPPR
T1 sequence (P20138 18-259 R69G): as the sequence (P20138 18-259) above, with R52G counted along it

B1: DARPin® protein #38 (designed binder)
chain: DLGVKLLRAAFHGQDDEVRILLAAGADVNAKDTDGETPLHYAAQFGHLEIVEVLLKAGADVNAKDAYGATPLHWAAWHGHLEIVEVLLKAGADVNAQDVSGATPADLAAKVGHEDIAEVLQKAA
notes: CD33-specific domain
Turning to B1, the binding result in experiment [1] was “binds”.

B2: DARPin® protein #8 (designed binder)
chain: DLGKKLLEAARAGQDDEVRILMANGADVNALDWLGHTPLHLAAYEGHLEIVEVLLKNGADVNAIDDNNGFTPLHLAAIDGHLEIVEVLLKNGADVNAQDKFGKTAFDISIDNGNEDLAEILQKAAGSPTPTPTTPTPTPTTPTPTPTGSDLGDKLLLAATSGQDDEVRILLAAGADVNAKDYDGDTPLHLAADEGHLEIVEVLLKAGADVNAKDYSGSTPLHAAAAYGHLEIVEVLLKAGADVNAQDVFGYTPADLAAYVGHEDIAEVLQKAAGSPTPTPTTPTPTPTTPTPTPTGSDLGQKLLEAAWAGQDDEVRELLKAGADVNAKNSRGWTPLHTAAQTGHLEIFEVLLKAGADVNAKDDKGVTPLHLAAALGHLEIVEVLLKAGADVNAQDSWGTTPADLAAKYGHEDIAEVLQKAA
notes: CD123-CD33-CD3 ankyrin repeat protein, no half-life extension; also called DARPin® #8; not shown: N-terminal His-tag
B2: the EC50 in experiment [2] lay in the range of 250 to 400 nM. For the same molecule, in experiment [3], the Kd was roughly 35 nM, the koff worked out at 0.0015 s⁻¹ and the kon was roughly 49000 M⁻¹ s⁻¹.

B3: DARPin® protein #10 (designed binder)
chain: B2 chain with D312L, E317I, D362T, D363N, G365R, Q394R, S396T, E411R
notes: CD123-CD33-CD3 ankyrin repeat protein, no half-life extension; also called DARPin® #10; not shown: N-terminal His-tag
Consider B3, for which the half-maximal effective concentration (EC50) in experiment [2] fell in the range of 5 to 15 nM. In addition, in experiment [3], the Kd is roughly 6 nM, the koff was found to be 0.00041 s⁻¹ and the kon is roughly 82000 M⁻¹ s⁻¹.

B4: DARPin® protein #9 (designed binder)
chain: B2 chain with D362N, G365R, Q394R, E411Q
notes: CD123-CD33-CD3 ankyrin repeat protein, no half-life extension; also called DARPin® #9; not shown: N-terminal His-tag
In the case of B4, in experiment [2], the EC50 is 50 to 100 nM. In experiment [3], this molecule came in with a Kd of roughly 15 nM, a koff of 0.0013 s⁻¹ and a kon of roughly 89000 M⁻¹ s⁻¹.

B5: DARPin® protein #25 (designed binder)
chain: DLGDKLLLAATSGQDDEVRILLAAGADVNAKDYDGDTPLHLAADEGHLEIVEVLLKAGADVNAKDYSGSTPLHAAAAYGHLEIVEVLLKAGADVNAQDVFGYTPADLAAYVGHEDIAEVLQKAAGSPTPTPTTPTPTPTTPTPTPTGSDLGQKLLEAAWAGQDDEVRILLAAGADVNAKNSRGWTPLHTAAQTGHLEIFEVLLKAGADVNAKNDKRVTPLHLAAALGHLEIVEVLLKAGADVNARDSWGTTPADLAAKYGHGDIAEVLQKLN
notes: CD33-CD3; not shown: N-terminal His-tag
In experiment [4], B5 had a dissociation constant Kd of 7.3 nM, a koff of 0.0304 s⁻¹ and a kon of 4.2e+06 M⁻¹ s⁻¹.

B6: DARPin® protein #37 (designed binder)
chain: DLGWKLLLAASRGQDDEVRILLAAGADVNAKDIDEGYTPLHIAAYYGHLEIVEVLLKAGADVNAKDRYGKTPLHLAAISGHEDIAEVLLKAGADVNAQDDKGDTPADLAADYGHEDIAEVLQKAA
notes: CD33-specific domain
Take B6: in experiment [1], the binding result is on record as “binds”.

B7: DARPin® protein #26 (designed binder)
chain: DLGKKLLEAARAGQDDEVRILMANGADVNALDWLGHTPLHLAAYEGHLEIVEVLLKNGADVNAIDDNNGFTPLHLAAIDGHLEIVEVLLKNGADVNAQDKFGKTAFDISIDNGNEDLAEILQKAAGSPTPTPTTPTPTPTTPTPTPTGSDLGQKLLEAAWAGQDDEVRILLAAGADVNAKNSRGWTPLHTAAQTGHLEIFEVLLKAGADVNAKNDKRVTPLHLAAALGHLEIVEVLLKAGADVNARDSWGTTPADLAAKYGHGDIAEVLQKLN
notes: not shown: N-terminal His-tag
With B7, in experiment [5], the Kd amounted to 9.5 nM, the koff is 0.017 s⁻¹ and the kon was determined as 1.79e+06 M⁻¹ s⁻¹.
